Test results published in patent publication US12514920B1, “Respiratory syncytial virus mRNA vaccine, and preparation method therefor and use thereof” (Hangzhou Tianlong Pharmaceutical Co., Ltd., priority 2024, dated 2026).
Numbering of substitutions follows the chain as printed.

B1: YK-RSV-048 (protein)
chain: QNITEEFYQSTCSAVSKGYLGALRTGWYTSVITIELSNIKENKCNGTDAKVKLIKQELDKYKNAVTDLQLLMQSTPATGSGSFLGFLCGVGSAIASGVAVSKVLHLEGEVNKIKSALLSTNKAVVSLSNGVSVLTFKVLDLKNYIDKQLLPILNKQSCSIPNIETVIEFQQKNNRLLEITREFSVNAGVTTPVSTYMLTNSELLSLINDMPITNDQKKLMSNNVQIVRQQSYSIMSIIKEEVLAYVVQLPLYGVIDTPCWKLHTSPLCTTNTKEGSNICLTRTDRGWYCDNAGSVSFFPQAETCKVQSNRVFCDTMCSRTLPSEVNLCNVDIFNPKYDCKIMTSKTDVSSSVITSLGAIVSCYGKTKCTASNKNRGIIKTFSNGCDYVSNKGVDTVSVGNTLYYVNKQEGQSLYVKGEPIINFYDPLVFPSDEFDASISQVNEKINQSLAFIRKSDELLHNVNAGKSTTNIMITTIIIVIIVILLSLIAVGLLLY
B2: YK-RSV-050 (protein)
chain: B1 chain with L87C, C88L
B3: YK-RSV-009 (protein)
chain: QNITEEFYCSTCSAVSKGYLGALRTGWYTSVILIELSNIKENKCNGTDAKVKLIKQELDKYKNAVTDLQLLMQSTPATGSGSAIASGVAVSKVLHLEGEVNKIKSALLSTNKAVVSLSNGVSVLTFKVLDLKNYIDKQLLPIVNKQSCSIPNIETVIEFQQKNNRLLEITREFSVNAGVTTPVSTYMLTNSELLSLINDMPITNDQKKLMSNNVQIVRQQSYSIMSIIKEEVLAYVVQLPLYGVIDTPCWKLHTSPLCTTNTKEGSNICLTRTDRGWYCDNAGSVSFFPQAETCKVQSNRVFCDTMNSRTLPSEVNLCNVDIFNPKYDCKIMTSKTDVSSSVITSLGAIVSCYGKTKCTASNKNRGIIKTFSNGCDYVSNKGVDTVSVGNTLYYVNKQEGQSLYVKCEPIINFYDPLVFPSSEFDASISQVNEKINQSLAFIRKSDELLHNVNAGKSTTNIMITTIIIVIIVILLSLIAVGLLLY
B4: YK-RSV-010 (protein)
chain: B3 chain with C9Q, S30C, L124C, C407G
B5: YK-RSV-055 (protein)
chain: B3 chain with C9Q, L33T, A83C, V143L, I228C, C407G, S422D
B6: YK-RSV-043 (protein)
chain: B3 chain with C9Q, L33T, T75C, S86C, V143L, C407G, S422D
B7: YK-RSV-057 (protein)
chain: B3 chain with C9Q, L33T, A83C, V143L, I227C, C407G, S422D

These molecules were tested on RSV pre-F antibody (3C12) (assay: ELISA binding of RSV F antigen mutants, epitope Φ). Conditions: ELISA; antibodies 3C12, 7H11, 7E11.
Protocol: (§1) To investigate the binding of the RSV F antigen mutants to antibodies recognizing different epitopes, the binding amount was determined by an ELISA method in this example.
(§2) • 293T cells (purchased from ATCC cell bank); • Primary antibody: RSV pre-F antibody (3C12), epitope ([…] (Novoprotein, Cat. No.: DA101); • RSV pre-F antibody (7H11), epitope Quaternary (Novoprotein, Cat. No.: DA109); • RSV F antibody (11A9), epitope II (Novoprotein, Cat. No.: DA091); • RSV F antibody (4B9), epitope III (Novoprotein, Cat. No.: DA110); • RSV pre-F antibody (7E11), epitope V (Cat. No.: DA119); • Standard: RSV-pre-F trimer protein (Novoprotein, Cat. No.: DRA230); • Secondary antibody: peroxidase AffiniPure goat anti-human IgG (H+L) (Yeasen, Cat. No.: N/A); • Experimental group: mRNA vaccines after screening in Example 5;
(§3) Cell culture and transfection, and protein sample preparation: the experimental procedures were the same as in Example 3.
(§4) Detection of antigen expression by ELISA: the experimental procedures were the same as in Example 5.
(§5) In the present application, the binding of different mutant antigens to antibodies recognizing different epitopes was detected by ELISA, and the strength of the binding of the antigens to the antibodies was measured by the binding amount. (1) The RSV pre-F antibody (3C12) recognizing the epitope Φ binds only to the F protein in the pre-fusion conformation; (2) the RSV pre-F antibody (7H11) recognizes the epitope Quaternary (spanning both epitopes IV and V) and specifically binds to the F protein in the pre-fusion conformation; (3) the RSV F antibody (11A9) recognizing the epitope II can recognize both the pre-fusion and post-fusion conformations of the F protein; (4) the RSV F antibody […] recognizing the epitope III preferentially recognizes the pre-fusion conformation and has relatively weak binding activity for the post-fusion conformation; (5) the RSV pre-F antibody (7E11) recognizing the epitope V binds only to the F protein in the pre-fusion conformation.

Molecule	binding of epitope Φ, epitope Quaternary and epitope V to the corresponding antibodies (in words)
B1	able to well bind
B2	able to well bind

Same assay, conditions: epitope Φ

Molecule	ELISA binding amount, Epitope Φ, RSV pre-F antibody (3C12) [ng/mL]
B3	521
B4	838
B5	8589
B6	9445
B7	5210
B1	3306
B2	3068

Same assay, conditions: epitope Φ, antibody 3C12; relative to PC-RSV-064

Molecule	Binding amount to antibody/binding amount of PC-RSV-064 to antibody, Epitope Φ
B3	0.19
B4	0.30
B5	3.10
B6	3.41
B7	1.88
B1	1.19
B2	1.11

What follows are molecules tested on RSV pre-F antibody (7E11) (assay: ELISA binding of RSV F antigen mutants, epitope V). Conditions: not given.
Protocol: as §1, §2, §3, §4, §5

Molecule	ELISA binding amount, Epitope V, RSV F antibody (7E11) [ng/mL]
B3	43
B4	139
B5	91
B6	223
B7	129
B1	217
B2	923

Same assay, conditions: antibody 7E11, relative to PC-RSV-064

Molecule	Binding amount to antibody/binding amount of PC-RSV-064 to antibody, Epitope V
B3	0.13
B4	0.43
B5	0.28
B6	0.69
B7	0.40
B1	0.68
B2	2.88

The molecules below were run on RSV pre-F antibody (3C12) (assay: Binding of epitope Φ of RSV F antigen mutants by flow cytometry). Conditions: flow cytometry; epitope Φ, antibody 3C12.
Outline: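 293T cells were transfected with mRNA-LNP (300 ng mRNA) encoding the RSV F mutants and harvested after 16 h. Cells were stained with fluorescent 3C12 (pre-F-specific epitope Φ) or 11A9 (epitope II, pre-F and post-F) for 2 h at 4 °C in the dark, then washed and read by flow cytometry on 1×10^4 cells per measurement.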

Molecule	RSV pre-F antibody (3C12) Epitope Φ (%) binding rate [%]
B3	87.4
B1	89.6
B2	86.5

Same assay, conditions: ratio of epitope Φ (3C12) to epitope II (11A9) binding rate

Molecule	Φ/II (%)
B3	93.9
B4	97.3
B5	97.0
B6	95.3
B7	97.1
B1	94.2
B2	93.0
